The source of these data is publication PMC3195669 (Biologics : Targets & Therapy, 2011).

This data set deals with the molecule itself. Nature of the data set: SDS-PAGE without heat denaturation or reducing agent.

B1: recombinant mouse full-length adiponectin subfractions, unlabeled (natural protein, UniProt Q60994 18-247, looked up)
chain: EDDVTTTEELAPALVPPPKGTCAGWMAGIPGHPGHNGTPGRDGRDGTPGEKGEKGDAGLLGPKGETGDVGMTGAEGPRGFPGTPGRKGEPGEAAYVYRSAFSVGLETRVTVPNVPIRFTKIFYNQQNHYDGSTGKFYCNIPGLYYFSYHITVYMKDVKVSLFKKDKAVLFTYDQYQEKNVDQASGSVLLHLEVGDQVWLQVYGDGDHNGLYADNVNDSTFTGFLLYHDTN
Turning to B1, the “stoichiometry N” value stood at 6.

One may read the stoichiometry N as the number of molecules, sites or subunits per partner or assembly.
